According to publication PMC5531254:

Experiments:
[1] = biological target: PIH1D1 (UniProt Q9NWS0); experiment: anti-FLAG co-IP, MYC blot; settings: reference: FLAG MRE11 wild type
[2] = biological target: PIH1D1 (UniProt Q9NWS0); experiment: GST pull-down with FLAG-purified MRE11; settings: reference: FLAG MRE11 wild type

binding against the reference ([1]; sites S688,S689)	binding against the reference ([2]; sites S688,S689)	binding against the reference ([1]; sites S558,S561)	binding against the reference ([2]; sites S558,S561)	Substance
weaker	weaker			MRE11 (from UniProt P49959) M3 (S688A/S689A)
		weaker	weaker	MRE11 (from UniProt P49959) M1 (S558A/S561A)
